Test results published in patent US20070196337A1, “RECOMBINANT PERFORIN, EXPRESSION AND USES THEREOF” (priority 2004, published 2007).

Columns and labels:
[1] = Storage stability of purified recombinant perforin at 4° C.; conditions: purified recombinant human perforin, storage at 4° C.
[2] = Lytic activity of purified recombinant (baculovirus) perforin; type: biochemical; conditions: baculovirus expression system
Excerpt: Perforin cDNA was cloned into the pFastBac vector and overexpressed in Sf-21 cells cultured in SF900-II SFM medium using a Bac-to-Bac kit (Invitrogen) and perforin was purified, all according to the manufacturer's instructions. Small amounts of recombinant WT and the G428E perforin mutant protein were obtained.

B1: recombinant human A91V: recombinant human A91V perforin from the baculovirus expression system (protein, UniProt P14222 22-555, looked up, variant A91V)
Perforin-1: PCHTAARSECKRSHKFVPGAWLAGEGVDVTSLRRSGSFPVDTQRFLRPDGTCTLCENALQEGTLQRLPLVLTNWRAQGSGCQRHVTRAKVSSTEAVARDAARSIRNDWKVGLDVTPKPTSNVHVSVAGSHSQAANFAAQKTHQDQYSFSTDTVECRFYSFHVVHTPPLHPDFKRALGDLPHHFNASTQPAYLRLISNYGTHFIRAVELGGRISALTALRTCELALEGLTDNEVEDCLTVEAQVNIGIHGSISAEAKACEEKKKKHKMTASFHQTYRERHSEVVGGHHTSINDLLFGIQAGPEQYSAWVNSLPGSPGLVDYTLEPLHVLLDSQDPRREALRRALSQYLTDRARWRDCSRPCPPGRQKSPRDPCQCVCHGSAVTTQDCCPRQRGLAQLEVTFIQAWGLWGDWFTATDAYVKLFFGGQELRTSTVWDNNNPIWSVRLDFGDVLLATGGPLRLQVWDQDSGRDDDLLGTCDQAPKSGSHEVRCNLNHGHLKFRYHARCLPHLGGGTCLDYVPQMLLGEPPGNRSGAVW
modifications: baculovirus-expressed
notes: recombinant human A91V perforin from the baculovirus expression system
- stability of lytic activity on storage [1]: undetectable levels after 48 hours
- cytolytic activity of recombinant protein relative to WT perforin [2]: < 10 % of WT
